The values below are quoted from earlier work in paper PMC6586500.

The data set addresses Histone H3K9me3 peptide (Homo sapiens) (UniProt P68431).

Chain of CBX5 (P45973 whole entry): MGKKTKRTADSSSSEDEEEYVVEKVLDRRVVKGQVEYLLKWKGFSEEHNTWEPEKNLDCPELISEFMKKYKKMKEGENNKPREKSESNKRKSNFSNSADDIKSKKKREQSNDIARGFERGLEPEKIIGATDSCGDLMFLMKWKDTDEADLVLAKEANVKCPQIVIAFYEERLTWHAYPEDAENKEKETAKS

For orientation: Kd means the equilibrium constant for the complex coming apart. As to CBX5 (from UniProt P45973), the Kd was 30 µM.
